Data taken from patent US20140363432A1.

What was measured:
[1] = target: recombinant hVEGF (165 amino acids) (human) (UniProt P15692); test: cell-based or functional assay
[2] = target: recombinant hVEGF (165 amino acids) (human) (UniProt P15692); test: 125I-hVEGF binding to bovine ACE cells with antibody (FIG. 3b); conditions: scale: molar ratio of antibody to hVEGF
[3] = target: recombinant hVEGF (165 amino acids) (human) (UniProt P15692); test: competitive binding of 125I-hVEGF against unlabeled hVEGF, immune complexes precipitated, Scatchard analysis

Chain of UniProt P15692 (P15692 other isoform, or with tags, fused parts or gaps): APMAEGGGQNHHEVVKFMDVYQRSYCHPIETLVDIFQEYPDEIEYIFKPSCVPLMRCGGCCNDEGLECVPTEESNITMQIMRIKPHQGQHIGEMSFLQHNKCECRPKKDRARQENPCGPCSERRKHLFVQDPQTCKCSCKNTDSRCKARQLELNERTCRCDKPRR

- inhibition of hVEGF mitogenic activity on bovine ACE cells [1]: > 90 % inhibition
- molar ratio of hVEGF to antibody at complete inhibition of hVEGF binding to bovine ACE cells [2]: 250
- Ka [3]: 1.2e+09 M⁻¹
Substance: anti-hVEGF monoclonal antibody produced by the A4.6.1 hybridoma
